± gives the standard deviation of the averaged measurements. A value given as a limit tells only on which side of the number the result lay.

The source of these data is the supplement of paper PMC11246515.

This series is described as follows: total protein half-life in vivo (active degradation + dilution); higher = more stable protein.
The mark [1] stands for this setting: wild type E. coli NCM3722, growth: C-lim chemostat, doubling time 3 h.
Setting [2] is: wild type E. coli NCM3722, growth: C-lim chemostat, doubling time 6 h.
The mark [3] stands for this setting: E. coli NCM3722 delta-clpP delta-lon delta-hslV, growth: N-lim chemostat, doubling time 6 h.
Where [4] appears, read: E. coli NCM3722 delta-clpP, growth: N-lim chemostat, doubling time 6 h.
Setting [5] is: E. coli NCM3722 delta-hslV, growth: N-lim chemostat, doubling time 6 h.
The mark [6] stands for this setting: E. coli NCM3722 delta-smpB, growth: N-lim chemostat, doubling time 6 h.
Setting [7] is: wild type E. coli NCM3722, growth: C-lim chemostat, doubling time 12 h.
The mark [8] stands for this setting: wild type E. coli NCM3722, growth: N-lim chemostat, doubling time 12 h.
Where [9] appears, read: wild type E. coli NCM3722, growth: P-lim chemostat, doubling time 6 h.
Where [10] appears, read: wild type E. coli NCM3722, growth: P-lim chemostat, doubling time 12 h.
[11] abbreviates: E. coli NCM3722 delta-lon, growth: N-lim chemostat, doubling time 6 h.
[12] abbreviates: wild type E. coli NCM3722, growth: N-lim chemostat, doubling time 6 h.

Take “MAAIAFIGLGQMGSPMASNLLQQGHQLRVFDVNAEAVRHLVDKGATPAANPAQAAKDAEFIITMLPNGDLVRNVLFGENGVCEGLSTDALVIDMSTIHPLQTDKLIADMQAKGFSMMDVPVGRTSANAITGTLLLLAGGTAEQVERATPILMAMGSELINAGGPGMGIRVKLINNYMSIALNALSAEAAVLCEALNLPFDVAVKVMSGTAAGKGHFTTSWPNKVLSGDLSPAFMIDLAHKDLGIALDVANQLHVPMPLGAASREVYSQARAAGRGRQDWSAILEQVRVSAGMTAKVKM [P0A9V8]”: the “total protein half-life in vivo” value reads like this: under setting [1], over 4 h; under setting [2], 4.77 ± 1.8 h.

Turning to “MKKSTLALVVMGIVASASVQAAEIYNKDGNKLDVYGKVKAMHYMSDNASKDGDQSYIRFGFKGETQINDQLTGYGRWEAEFAGNKAESDTAQQKTRLAFAGLKYKDLGSFDYGRNLGALYDVEAWTDMFPEFGGDSSAQTDNFMTKRASGLATYRNTDFFGVIDGLNLTLQYQGKNENRDVKKQNGDGFGTSLTYDFGGSDFAISGAYTNSDRTNEQNLQSRGTGKRAEAWATGLKYDANNIYLATFYSETRKMTPITGGFANKTQNFEAVAQYQFDFGLRPSLGYVLSKGKDIEGIGDEDLVNYIDVGATYYFNKNMSAFVDYKINQLDSDNKLNINNDDIVAVGMTYQF”, the “total protein half-life in vivo” value runs as follows: under setting [3], 6.3 h; under setting [4], over 8 h; under setting [5], 6.65 ± 0.12 h; under setting [6], 6.18 ± 0.13 h; under setting [2], 5.98 ± 0.22 h; under setting [7], 12.6 ± 1.1 h. Further, the “total protein half-life in vivo” value under setting [8] worked out at 11 ± 2.1 h, the “total protein half-life in vivo” value under setting [9] was determined as 6.41 ± 0.31 h and the “total protein half-life in vivo” value under setting [10] was found to be 13.9 ± 1.1 h.

As to “MKLAVYSTKQYDKKYLQQVNESFGFELEFFDFLLTEKTAKTANGCEAVCIFVNDDGSRPVLEELKKHGVKYIALRCAGFNNVDLDAAKELGLKVVRVPAYDPEAVAEHAIGMMMTLNRRIHRAYQRTRDANFSLEGLTGFTMYGKTAGVIGTGKIGVAMLRILKGFGMRLLAFDPYPSAAALELGVEYVDLPTLFSESDVISLHCPLTPENYHLLNEAAFEQMKNGVMIVNTSRGALIDSQAAIEALKNQKIGSLGMDVYENERDLFFEDKSNDVIQDDVFRRLSACHNVLFTGHQAFLTAEALTSISQTTLQNLSNLEKGETCPNELV”, the “total protein half-life in vivo” value under setting [3] was 4.95 ± 0.5 h; the “total protein half-life in vivo” value under setting [4] was found to be 5.65 ± 1.9 h; the “total protein half-life in vivo” value under setting [5] worked out at 4.53 ± 0.051 h; the “total protein half-life in vivo” value under setting [11] came out at 5.26 ± 0.41 h; the “total protein half-life in vivo” value under setting [6] was found to be 4.57 ± 0.16 h; the “total protein half-life in vivo” value under setting [1] is 3.08 ± 0.3 h. Moreover, the “total protein half-life in vivo” value under setting [2] was 5.97 ± 0.49 h; the “total protein half-life in vivo” value under setting [7] is 11.3 ± 0.19 h; the “total protein half-life in vivo” value under setting [12] was 4.64 ± 0.38 h; the “total protein half-life in vivo” value under setting [8] was found to be 7.53 ± 0.61 h; the “total protein half-life in vivo” value under setting [9] amounted to 5.67 ± 0.38 h; the “total protein half-life in vivo” value under setting [10] was found to be 12.3 ± 0.16 h.

“MTNNPLIPQSKLPQLGTTIFTQMSALAQQHQAINLSQGFPDFDGPRYLQERLAHHVAQGANQYAPMTGVQALREAIAQKTERLYGYQPDADSDITVTAGATEALYAAITALVRNGDEVICFDPSYDSYAPAIALSGGIVKRMALQPPHFRVDWQEFAALLSERTRLVILNTPHNPSATVWQQADFAALWQAIAGHEIFVISDEVYEHINFSQQGHASVLAHPQLRERAVAVSSFGKTYHMTGWKVGYCVAPAPISAEIRKVHQYLTFSVNTPAQLALADMLRAEPEHYLALPDFYRQKRDILVNALNESRLEILPCEGTYFLLVDYSAVSTLDDVEFCQWLTQEHGVAAIPLSVFCADPFPHKLIRLCFAKKESTLLAAAERLRQL”: the “total protein half-life in vivo” value came out at 2.63 ± 0.15 h under setting [3]; 1.93 ± 0.071 h under setting [4]; 1.69 ± 0.11 h under setting [5]; 2.09 h under setting [11]; 2.01 ± 0.052 h under setting [6]; 2.48 ± 0.11 h under setting [1]. The “total protein half-life in vivo” value under setting [2] came out at 3.9 ± 0.38 h; the “total protein half-life in vivo” value under setting [7] stood at 5.92 ± 0.72 h; the “total protein half-life in vivo” value under setting [12] was found to be 1.95 h; the “total protein half-life in vivo” value under setting [9] was determined as 5.33 ± 1.2 h; the “total protein half-life in vivo” value under setting [10] came out at 8.16 ± 1 h.

As for “MKTLLIIDANLGQARAYMAKTLLGAAARKAKLEIIDNPNDAEMAIVLGDSIPNDSALNGKNVWLGDISRAVAHPELFLSEAKGHAKPYTAPVAATAPVAASGPKRVVAVTACPTGVAHTFMAAEAIETEAKKRGWWVKVETRGSVGAGNAITPEEVAAADLVIVAADIEVDLAKFAGKPMYRTSTGLALKKTAQELDKAVAEATPYEPAGKAQTATTESKKESAGAYRHLLTGVSYMLPMVVAGGLCIALSFAFGIEAFKEPGTLAAALMQIGGGSAFALMVPVLAGYIAFSIADRPGLTPGLIGGMLAVSTGSGFIGGIIAGFLAGYIAKLISTQLKLPQSMEALKPILIIPLISSLVVGLAMIYLIGKPVAGILEGLTHWLQTMGTANAVLLGAILGGMMCTDMGGPVNKAAYAFGVGLLSTQTYGPMAAIMAAGMVPPLAMGLATMVARRKFDKAQQEGGKAALVLGLCFISEGAIPFAARDPMRVLPCCIVGGALTGAISMAIGAKLMAPHGGLFVLLIPGAITPVLGYLVAIIAGTLVAGLAYAFLKRPEVDAVAKAA”, the “total protein half-life in vivo” value runs as follows: under setting [3], 6.73 ± 0.62 h; under setting [5], 5.956 ± 0.014 h; under setting [11], 5.76 ± 0.27 h; under setting [6], 5.89 ± 0.43 h; under setting [1], 3.54 ± 0.33 h; under setting [2], 6.11 ± 0.28 h. The “total protein half-life in vivo” value reads like this: under setting [7], 13.4 ± 0.7 h; under setting [12], 5.89 ± 0.44 h; under setting [8], 11.6 ± 0.25 h; under setting [9], 6.29 ± 0.29 h; under setting [10], 11.9 ± 0.6 h.

As to “MPLLHLLRQNPVIAAVKDNASLQLAIDSECQFISVLYGNICTISNIVKKIKNAGKYAFIHVDLLEGASNKEVVIQFLKLVTEADGIISTKASMLKAARAEGFFCIHRLFIVDSISFHNIDKQVAQSNPDCIEILPGCMPKVLGWVTEKIRQPLIAGGLVCDEEDARNAINAGVVALSTTNTGVWTLAKKLL”, the “total protein half-life in vivo” value by setting is: under setting [6], 3.74 h; under setting [1], 2.77 ± 0.24 h; under setting [2], 4.77 ± 0.7 h; under setting [7], 12.1 ± 1.7 h; under setting [10], 8.94 h.

“MTVQDYLLKFRKISSLESLEKLYDHLNYTLTDDQELINMYRAADHRRAELVSGGRLFDLGQVPKSVWHYVQ”: the “total protein half-life in vivo” value by setting is: under setting [3], 6.59 ± 0.11 h; under setting [11], 5.67 ± 0.55 h; under setting [6], 4.11 ± 0.46 h; under setting [12], 3.59 h; under setting [8], 6.7 h; under setting [9], 2.63 h. Also, the “total protein half-life in vivo” value under setting [10] was 6.54 ± 0.37 h.

With “MAINNTGSRRLLVTLTALFAALCGLYLLIGGGWLVAIGGSWYYPIAGLVMLGVAWMLWRSKRAALWLYAALLLGTMIWGVWEVGFDFWALTPRSDILVFFGIWLILPFVWRRLVIPASGAVAALVVALLISGGILTWAGFNDPQEINGTLSADATPAEAISPVADQDWPAYGRNQEGQRFSPLKQINADNVHNLKEAWVFRTGDVKQPNDPGEITNEVTPIKVGDTLYLCTAHQRLFALDAASGKEKWHYDPELKTNESFQHVTCRGVSYHEAKAETASPEVMADCPRRIILPVNDGRLIAINAENGKLCETFANKGVLNLQSNMPDTKPGLYEPTSPPIITDKTIVMAGSVTDNFSTRETSGVIRGFDVNTGELLWAFDPGAKDPNAIPSDEHTFTFNSPNSWAPAAYDAKLDLVYLPMGVTTPDIWGGNRTPEQERYASSILALNATTGKLAWSYQTVHHDLWDMDLPAQPTLADITVNGQKVPVIYAPAKTGNIFVLDRRNGELVVPAPEKPVPQGAAKGDYVTPTQPFSELSFRPTKDLSGADMWGATMFDQLVCRVMFHQMRYEGIFTPPSEQGTLVFPGNLGMFEWGGISVDPNREVAIANPMALPFVSKLIPRGPGNPMEQPKDAKGTGTESGIQPQYGVPYGVTLNPFLSPFGLPCKQPAWGYISALDLKTNEVVWKKRIGTPQDSMPFPMPVPVPFNMGMPMLGGPISTAGNVLFIAATADNYLRAYNMSNGEKLWQGRLPAGGQATPMTYEVNGKQYVVISAGGHGSFGTKMGDYIVAYALPDDVK”, the “total protein half-life in vivo” value worked out at 6.446 ± 0.039 h under setting [3]; 7.31 ± 0.86 h under setting [4]; 5.96 ± 0.15 h under setting [5]; 6.58 ± 0.58 h under setting [11]; 6.14 ± 0.11 h under setting [6]; 3.18 ± 0.17 h under setting [1]. Also, the “total protein half-life in vivo” value came out at 6.44 ± 0.37 h under setting [2]; 13.8 ± 0.65 h under setting [7]; 6.04 ± 0.28 h under setting [12]; 13.4 ± 0.83 h under setting [8]; 6.54 ± 0.22 h under setting [9]; 13.69 ± 0.084 h under setting [10].

For the sequence “MNRIYACPVADVPEGEALRIDTSPVIALFNVGGEFYAINDRCSHGNASMSEGYLEDDATVECPLHAASFCLKTGKALCLPATDPLTTYPVHVEGGDIFIDLPEAQP [P0ABW0]”, the “total protein half-life in vivo” value under setting [10] was 2.53 h.
